Data set [1] can be described thus: soluble expression of ectodomain in Sf9 cells. Conditions: glycan lost; control: WT JUNO ectodomain.
Data set [2] in a line: mRNA complementation of Juno KO eggs, fertilization rate. Conditions: glycan lost; control: Juno KO eggs injected with WT mJuno mRNA.

B1: JUNO (folate receptor 4, IZUMO1R): N185D (protein)
parent chain: MAQWWQILLGLWAVLPTLAGDKLLSVCMNSKRHKQEPGPEDELYQECRPWEDNACCTRSTSWEAHLEEPLLFNFSMMHCGLLTPACRKHFIQAICFHECSPNLGPWIQPVVPNGQEEQRVWGVPLCQEDCEDWWRACHSSLTCKSNWLHGWDWSEEKKHCPAHEPCLPFSYHFPTPDDLCEKIWNNTFKASPERRNSGRCLQKWFEPTLSNPNVEVALHFAGSALAPQLSYTLPAFSLCLLFHP
In the case of B1, in data set [1], the expression_or_secretion entry is “abolishes”.

B2: JUNO (folate receptor 4, IZUMO1R): N73D (protein)
parent chain: MAQWWQILLGLWAVLPTLAGDKLLSVCMNSKRHKQEPGPEDELYQECRPWEDNACCTRSTSWEAHLEEPLLFNFSMMHCGLLTPACRKHFIQAICFHECSPNLGPWIQPVVPNGQEEQRVWGVPLCQEDCEDWWRACHSSLTCKSNWLHGWDWSEEKKHCPAHEPCLPFSYHFPTPDDLCEKIWNNTFKASPERRNSGRCLQKWFEPTLSNPNVEVALHFAGSALAPQLSYTLPAFSLCLLFHP
B2: the “other: sperm-egg fusion, other: percent eggs fertilized” value in data set [2] is recorded as “no change, 94.7 vs 93.5”. For the same protein, the expression_or_secretion result in data set [1] is listed as “no change”.

The record behind these values is paper PMC4947182.
